{
  "source": "IntAct's records for PubMed 21119616",
  "parents": {"B1": {"name": "Retinoblastoma-associated protein (Homo sapiens), P06400 (parent)", "chain": "MPPKTPRKTAATAAAAAAEPPAPPPPPPPEEDPEQDSGPEDLPLVRLEFEETEEPDFTALCQKLKIPDHVRERAWLTWEKVSSVDGVLGGYIQKKKELWGICIFIAAVDLDEMSFTFTELQKNIEISVHKFFNLLKEIDTSTKVDNAMSRLLKKYDVLFALFSKLERTCELIYLTQPSSSISTEINSALVLKVSWITFLLAKGEVLQMEDDLVISFQLMLCVLDYFIKLSPPMLLKEPYKTAVIPINGSPRTPRRGQNRSARIAKQLENDTRIIEVLCKEHECNIDEVKNVYFKNFIPFMNSLGLVTSNGLPEVENLSKRYEEIYLKNKDLDARLFLDHDKTLQTDSIDSFETQRTPRKSNLDEEVNVIPPHTPVRTVMNTIQQLMMILNSASDQPSENLISYFNNCTVNPKESILKRVKDIGYIFKEKFAKAVGQGCVEIGSQRYKLGVRLYYRVMESMLKSEEERLSIQNFSKLLNDNIFHMSLLACALEVVMATYSRSTSQNLDSGTDLSFPWILNVLNLKAFDFYKVIESFIKAEGNLTREMIKHLERCEHRIMESLAWLSDSPLFDLIKQSKDREGPTDHLESACPLNLPLQNNHTAADMYLSPVRSPKKKGSTTRVNSTANAETQATSAFQTQKPLKSTSLSLFYKKVYRLAYLRLNTLCERLLSEHPELEHIIWTLFQHTLQNEYELMRDRHLDQIMMCSMYGICKVKNIDLKFKIIVTAYKDLPHAVQETFKRVLIKEEEYDSIIVFYNSVFMQRLKTNILQYASTRPPTLSPIPHIPRSPYKFPSSPLRIPGGNIYISPLKSPYKISEGLPTPTKMTPRSRILVSIGESFGTSEKFQKINQMVCNSDRVLKRSAEGSNPPKPLKKLRFDIEGSDEADGSKHLPGESKFQQKLAEMTSTRTRMQKQKMNDSMDTSNKEEK", "partner": "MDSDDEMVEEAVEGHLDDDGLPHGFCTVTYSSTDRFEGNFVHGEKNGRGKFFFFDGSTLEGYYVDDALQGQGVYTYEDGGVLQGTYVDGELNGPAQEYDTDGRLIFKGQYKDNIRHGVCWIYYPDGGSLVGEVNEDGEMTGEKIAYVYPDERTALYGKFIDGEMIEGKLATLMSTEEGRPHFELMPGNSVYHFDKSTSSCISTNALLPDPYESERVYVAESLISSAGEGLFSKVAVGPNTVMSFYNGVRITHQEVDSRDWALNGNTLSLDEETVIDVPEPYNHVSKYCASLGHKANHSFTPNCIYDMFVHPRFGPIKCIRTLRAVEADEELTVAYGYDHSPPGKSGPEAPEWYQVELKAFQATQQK"}},
  "data": [
    {"variants_of": "B1", "conditions": "with setd7_human SETD7, Q8WTS6", "values": [
      {"variant": "K810R", "effect of a mutation on the interaction": "disrupting interaction"}
    ]}
  ]
}
